90 variants from IntAct's records for PubMed 29039417 can be followed below.

B1: Protein PTHB1 (Homo sapiens), Q3SYG4 (parent)
chain: MSLFKARDWWSTILGDKEEFDQGCLCLANVDNSGNGQDKIIVGSFMGYLRIFSPHPAKTGDGAQAEDLLLEVDLRDPVLQVEVGKFVSGTEMLHLAVLHSRKLCVYSVSGTLGNVEHGNQCQMKLMYEHNLQRTACNMTYGSFGGVKGRDLICIQSMDGMLMVFEQESYAFGRFLPGFLLPGPLAYSSRTDSFLTVSSCQQVESYKYQVLAFATDADKRQETEQQKLGSGKRLVVDWTLNIGEQALDICIVSFNQSASSVFVLGERNFFCLKDNGQIRFMKKLDWSPSCFLPYCSVSEGTINTLIGNHNNMLHIYQDVTLKWATQLPHIPVAVRVGCLHDLKGVIVTLSDDGHLQCSYLGTDPSLFQAPNVQSRELNYDELDVEMKELQKIIKDVNKSQGVWPMTEREDDLNVSVVVSPNFDSVSQATDVEVGTDLVPSVTVKVTLQNRVILQKAKLSVYVQPPLELTCDQFTFEFMTPDLTRTVSFSVYLKRSYTPSELEGNAVVSYSRPTDRNPDGIPRVIQCKFRLPLKLICLPGQPSKTASHKITIDTNKSPVSLLSLFPGFASQSDDDQVNVMGFHFLGGARITVLASKTSQRYRIQSEQFEDLWLITNELILRLQEYFEKQGVKDFACSFSGSIPLQEYFELIDHHFELRINGEKLEELLSERAVQFRAIQRRLLARFKDKTPAPLQHLDTLLDGTYKQVIALADAVEENQGNLFQSFTRLKSATHLVILLIALWQKLSADQVAILEAAFLPLQEDTQELGWEETVDAAISHLLKTCLSKSSKEQALNLNSQLNIPKDTSQLKKHITLLCDRLSKGGRLCLSTDAAAPQTMVMPGGCTTIPESDLEERSVEQDSTELFTNHRHLTAETPRPEVSPLQGVSE
partner: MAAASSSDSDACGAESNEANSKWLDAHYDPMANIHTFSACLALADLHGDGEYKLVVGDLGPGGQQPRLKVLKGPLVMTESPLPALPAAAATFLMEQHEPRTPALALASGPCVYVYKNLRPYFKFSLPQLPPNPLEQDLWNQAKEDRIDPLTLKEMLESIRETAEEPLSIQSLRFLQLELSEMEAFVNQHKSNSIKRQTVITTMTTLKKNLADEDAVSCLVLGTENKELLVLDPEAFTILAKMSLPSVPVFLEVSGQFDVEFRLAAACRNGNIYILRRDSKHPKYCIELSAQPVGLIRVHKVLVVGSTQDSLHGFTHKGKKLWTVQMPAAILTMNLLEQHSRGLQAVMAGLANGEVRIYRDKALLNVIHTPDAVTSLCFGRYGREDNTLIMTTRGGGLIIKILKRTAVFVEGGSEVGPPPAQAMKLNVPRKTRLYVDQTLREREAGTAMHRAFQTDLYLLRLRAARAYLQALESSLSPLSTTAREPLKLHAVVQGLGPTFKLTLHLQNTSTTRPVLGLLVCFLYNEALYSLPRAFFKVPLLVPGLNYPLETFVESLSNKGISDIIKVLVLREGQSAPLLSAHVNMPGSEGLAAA

One test covers variants of B1. Conditions: with bbs1_human BBS1, Q8NFJ9.
Consider V424A, for which the “effect of a mutation on the interaction” value is recorded as “with no effect”. Same read-out and setting: for T552K the value was “with no effect”. The same measure, in the same setting: for A755E the value was “with no effect”; for A832K, “with no effect”; for Q858A, “with no effect”.

As to N420A, the “effect of a mutation on the interaction” value was “with no effect”. In the case of N420E, the “effect of a mutation on the interaction” value is “with no effect”. The same measure, in the same setting: the value for V838A was “with no effect”; that for P689K was “with no effect”. On the same count and under the same terms, the value for I676A was “with no effect”.

Take K786A: the “effect of a mutation on the interaction” value was “with no effect”. The same measure, in the same setting: for S509E the value was “with no effect”; for D859K, “with no effect”; for D804A, “with no effect”.

Turning to T725E, the “effect of a mutation on the interaction” value is “with no effect”. Same read-out and setting: for T589A the value was “with no effect”. As for Y599K, the “effect of a mutation on the interaction” value is listed as “with no effect”. In the case of Q574K, the “effect of a mutation on the interaction” value was “with no effect”. The same measure, in the same setting: for L655A the value was “with no effect”.

As to Q539E, the “effect of a mutation on the interaction” value is recorded as “with no effect”. Same read-out and setting: the value for L436A was “with no effect”; that for I612E was “with no effect”; that for R510E was “with no effect”. The same measure, in the same setting: for F472E the value was “with no effect”. On the same count and under the same terms, for L733E the value was “with no effect”.

Regarding L851K, the “effect of a mutation on the interaction” value is “with no effect”. Still for that read-out and setting: the value for L680E was “with no effect”. Same read-out and setting: the value for C469A was “with no effect”; that for E622A was “with no effect”. The same measure, in the same setting: the value for N796E was “with no effect”. I812K: the “effect of a mutation on the interaction” value is reported as “with no effect”. L793A: the “effect of a mutation on the interaction” value is “with no effect”. Same read-out and setting: for T484A the value was “with no effect”; for T543K, “with no effect”; for N719K, “with no effect”.

With F566A, the “effect of a mutation on the interaction” value is on record as “with no effect”. Take H732K: the “effect of a mutation on the interaction” value was “with no effect”.

As to V577A, the “effect of a mutation on the interaction” value is recorded as “with no effect”. The same measure, in the same setting: for S498E the value was “with no effect”; for A690K, “disrupting interaction strength”; for A690V, “disrupting interaction strength”. In the case of L709A, the “effect of a mutation on the interaction” value is listed as “with no effect”. On the same count and under the same terms, the value for K789E was “with no effect”. On the same count and under the same terms, for K789A the value was “with no effect”; for L662E, “with no effect”. The same measure, in the same setting: for E466A the value was “with no effect”. For R868K, the “effect of a mutation on the interaction” value is listed as “with no effect”. Same read-out and setting: for L531K the value was “with no effect”; for W741S, “disrupting interaction strength”.

For the variant V415E, the “effect of a mutation on the interaction” value is given as “with no effect”. Same read-out and setting: the value for T697C was “disrupting interaction strength”. The same measure, in the same setting: for D551A the value was “with no effect”; for D817E, “with no effect”. Still for that read-out and setting: the value for A504E was “with no effect”; that for T441K was “with no effect”; that for L666K was “with no effect”. I738K: the “effect of a mutation on the interaction” value was “disrupting interaction strength”. Same read-out and setting: for K803E the value was “with no effect”; for H581K, “with no effect”.

For H581A, the “effect of a mutation on the interaction” value is given as “with no effect”.

N716A: the “effect of a mutation on the interaction” value is listed as “with no effect”. On the same count and under the same terms, for C826E the value was “with no effect”; for D686E, “with no effect”. On the same count and under the same terms, for I451E the value was “with no effect”. The same measure, in the same setting: for K781A the value was “with no effect”; for S849K, “with no effect”.

Turning to S723K, the “effect of a mutation on the interaction” value is “with no effect”. On the same count and under the same terms, for V413E the value was “with no effect”; for F721A, “with no effect”. Same read-out and setting: for D435K the value was “with no effect”; for P511K, “with no effect”. Same read-out and setting: for S555A the value was “with no effect”; for V575K, “with no effect”; for V575A, “with no effect”. For I588E, the “effect of a mutation on the interaction” value is “with no effect”.

Take I588A: the “effect of a mutation on the interaction” value is on record as “with no effect”. The same measure, in the same setting: the value for I801K was “with no effect”; that for I617E was “with no effect”. The same measure, in the same setting: for N800K the value was “with no effect”.

V671E: the “effect of a mutation on the interaction” value is “with no effect”. As to S860K, the “effect of a mutation on the interaction” value was “with no effect”. As for G718K, the “effect of a mutation on the interaction” value is reported as “with no effect”. The same measure, in the same setting: for L692E the value was “with no effect”; for T434A, “with no effect”; for T434E, “with no effect”. The same measure, in the same setting: the value for V459A was “with no effect”; that for P802T was “disrupting interaction strength”; that for P802E was “with no effect”.

On to D409K, for which the “effect of a mutation on the interaction” value is listed as “with no effect”.

Take E761K: the “effect of a mutation on the interaction” value is “with no effect”.

In another test the parent is B1. Conditions: with bbs1_human BBS1, Q8NFJ9. The source holds these as a separate data set.
Regarding A690K, the “effect of a mutation on the interaction” value was “with no effect”.
